Earlier results as cited in article PMC2978668.
Like-named read-outs stand apart in the source and are kept apart here. One block for each substance: values may come before it.

Tests used:
fibulin-2 = fibulin-2 (UniProt P98095)
perlecan domain IV [1] = target: perlecan domain IV (UniProt P98160)
perlecan domain IV [2] = target: perlecan domain IV (UniProt P98160); remark: listed apart in the source
fibronectin = fibronectin (UniProt P02751)
α4-laminin = α4-laminin (UniProt Q16363)
α1-laminin = α1-laminin (UniProt P25391)
perlecan LG = perlecan LG (UniProt P98160)
Chain of perlecan LG (P98160 3687-4391): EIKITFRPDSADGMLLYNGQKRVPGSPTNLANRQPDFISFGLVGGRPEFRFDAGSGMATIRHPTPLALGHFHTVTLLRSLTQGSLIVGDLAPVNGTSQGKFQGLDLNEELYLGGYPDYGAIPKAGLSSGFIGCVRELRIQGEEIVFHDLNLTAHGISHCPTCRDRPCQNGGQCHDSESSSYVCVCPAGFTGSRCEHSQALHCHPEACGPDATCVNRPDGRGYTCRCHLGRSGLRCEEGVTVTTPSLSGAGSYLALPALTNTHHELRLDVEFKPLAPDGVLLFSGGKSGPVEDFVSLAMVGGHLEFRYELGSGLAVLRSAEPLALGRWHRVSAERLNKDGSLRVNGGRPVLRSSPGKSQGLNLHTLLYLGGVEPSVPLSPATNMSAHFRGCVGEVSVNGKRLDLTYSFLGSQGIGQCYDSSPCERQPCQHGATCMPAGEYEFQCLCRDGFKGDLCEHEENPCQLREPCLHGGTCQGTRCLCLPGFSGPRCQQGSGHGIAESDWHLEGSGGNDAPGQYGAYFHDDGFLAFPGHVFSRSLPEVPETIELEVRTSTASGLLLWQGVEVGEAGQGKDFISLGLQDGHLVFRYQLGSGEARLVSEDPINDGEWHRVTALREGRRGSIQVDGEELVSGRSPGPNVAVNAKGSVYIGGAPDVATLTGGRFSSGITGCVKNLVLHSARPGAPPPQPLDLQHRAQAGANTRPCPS

α2-laminin = α2-laminin (UniProt P24043)
agrin (muscle) = agrin (muscle) (UniProt O00468)
α5-laminin = α5-laminin (UniProt O15230)

Chain of α-dystroglycan (Q14118 30-653): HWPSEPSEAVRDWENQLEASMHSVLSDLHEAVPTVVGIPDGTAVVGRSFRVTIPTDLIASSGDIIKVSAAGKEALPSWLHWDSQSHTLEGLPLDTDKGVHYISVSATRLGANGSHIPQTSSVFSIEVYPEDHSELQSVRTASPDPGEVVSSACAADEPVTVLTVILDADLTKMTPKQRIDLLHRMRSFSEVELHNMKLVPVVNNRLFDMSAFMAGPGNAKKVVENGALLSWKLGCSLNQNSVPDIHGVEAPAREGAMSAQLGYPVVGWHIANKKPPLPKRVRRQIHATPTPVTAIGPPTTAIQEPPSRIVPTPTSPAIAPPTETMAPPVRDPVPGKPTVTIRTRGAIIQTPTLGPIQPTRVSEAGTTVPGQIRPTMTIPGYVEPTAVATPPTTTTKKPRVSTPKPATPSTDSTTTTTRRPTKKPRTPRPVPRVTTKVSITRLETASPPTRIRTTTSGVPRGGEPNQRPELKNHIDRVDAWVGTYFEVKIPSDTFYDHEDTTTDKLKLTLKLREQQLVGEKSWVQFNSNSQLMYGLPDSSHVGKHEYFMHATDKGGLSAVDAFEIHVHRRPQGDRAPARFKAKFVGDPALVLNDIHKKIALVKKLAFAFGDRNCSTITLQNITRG
Chain of perlecan domain IV (UniProt P98160) (P98160 1677-3686): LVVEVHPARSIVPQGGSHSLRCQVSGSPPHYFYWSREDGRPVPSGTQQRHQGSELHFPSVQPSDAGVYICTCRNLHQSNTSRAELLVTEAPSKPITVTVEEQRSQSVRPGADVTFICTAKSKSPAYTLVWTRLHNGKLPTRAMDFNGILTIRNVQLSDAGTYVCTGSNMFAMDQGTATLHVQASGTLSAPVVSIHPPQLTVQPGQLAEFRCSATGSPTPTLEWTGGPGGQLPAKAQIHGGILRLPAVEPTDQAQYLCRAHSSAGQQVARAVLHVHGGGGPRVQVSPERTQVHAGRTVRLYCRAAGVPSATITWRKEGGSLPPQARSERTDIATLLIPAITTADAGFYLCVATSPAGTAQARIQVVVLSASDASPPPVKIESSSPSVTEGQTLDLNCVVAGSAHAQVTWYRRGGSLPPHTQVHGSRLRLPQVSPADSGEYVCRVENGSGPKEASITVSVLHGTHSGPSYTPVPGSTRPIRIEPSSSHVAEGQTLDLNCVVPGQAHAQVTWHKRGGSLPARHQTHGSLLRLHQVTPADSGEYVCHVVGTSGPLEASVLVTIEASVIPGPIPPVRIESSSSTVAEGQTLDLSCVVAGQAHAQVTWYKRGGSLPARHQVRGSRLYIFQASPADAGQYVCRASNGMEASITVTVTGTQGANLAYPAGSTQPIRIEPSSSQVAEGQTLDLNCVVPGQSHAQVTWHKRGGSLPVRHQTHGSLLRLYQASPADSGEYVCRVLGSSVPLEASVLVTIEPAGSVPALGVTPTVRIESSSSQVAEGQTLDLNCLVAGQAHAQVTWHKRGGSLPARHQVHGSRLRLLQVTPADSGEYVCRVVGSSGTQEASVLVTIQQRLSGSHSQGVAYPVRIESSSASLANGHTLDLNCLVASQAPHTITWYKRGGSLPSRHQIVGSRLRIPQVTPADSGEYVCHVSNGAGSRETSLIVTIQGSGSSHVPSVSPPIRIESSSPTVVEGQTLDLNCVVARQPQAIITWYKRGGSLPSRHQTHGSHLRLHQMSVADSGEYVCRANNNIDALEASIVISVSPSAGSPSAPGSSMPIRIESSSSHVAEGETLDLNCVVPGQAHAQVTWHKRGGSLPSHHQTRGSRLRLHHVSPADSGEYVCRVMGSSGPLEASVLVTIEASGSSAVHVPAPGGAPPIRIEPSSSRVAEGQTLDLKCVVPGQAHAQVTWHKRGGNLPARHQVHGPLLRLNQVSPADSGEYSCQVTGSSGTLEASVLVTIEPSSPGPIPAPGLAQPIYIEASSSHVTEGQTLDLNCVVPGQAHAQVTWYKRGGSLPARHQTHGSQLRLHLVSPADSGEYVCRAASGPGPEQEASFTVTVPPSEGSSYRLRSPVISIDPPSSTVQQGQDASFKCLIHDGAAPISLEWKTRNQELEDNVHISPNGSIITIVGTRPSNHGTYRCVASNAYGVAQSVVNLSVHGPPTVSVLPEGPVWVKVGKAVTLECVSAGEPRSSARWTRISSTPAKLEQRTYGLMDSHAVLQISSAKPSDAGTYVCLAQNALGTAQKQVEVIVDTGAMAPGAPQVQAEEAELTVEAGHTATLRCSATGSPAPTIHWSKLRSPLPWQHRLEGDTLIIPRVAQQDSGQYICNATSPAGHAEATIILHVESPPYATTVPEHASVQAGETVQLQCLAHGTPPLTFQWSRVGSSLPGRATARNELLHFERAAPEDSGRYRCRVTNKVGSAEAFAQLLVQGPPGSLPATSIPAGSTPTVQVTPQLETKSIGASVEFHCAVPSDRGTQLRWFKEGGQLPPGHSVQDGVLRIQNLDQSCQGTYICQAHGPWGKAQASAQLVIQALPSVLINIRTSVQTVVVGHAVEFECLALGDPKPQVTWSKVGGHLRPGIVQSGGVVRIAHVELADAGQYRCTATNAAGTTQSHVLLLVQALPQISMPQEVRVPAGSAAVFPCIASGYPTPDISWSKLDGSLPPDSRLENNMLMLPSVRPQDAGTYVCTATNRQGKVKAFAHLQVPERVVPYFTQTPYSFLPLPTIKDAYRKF
Chain of fibulin-2 (P98095 28-1184): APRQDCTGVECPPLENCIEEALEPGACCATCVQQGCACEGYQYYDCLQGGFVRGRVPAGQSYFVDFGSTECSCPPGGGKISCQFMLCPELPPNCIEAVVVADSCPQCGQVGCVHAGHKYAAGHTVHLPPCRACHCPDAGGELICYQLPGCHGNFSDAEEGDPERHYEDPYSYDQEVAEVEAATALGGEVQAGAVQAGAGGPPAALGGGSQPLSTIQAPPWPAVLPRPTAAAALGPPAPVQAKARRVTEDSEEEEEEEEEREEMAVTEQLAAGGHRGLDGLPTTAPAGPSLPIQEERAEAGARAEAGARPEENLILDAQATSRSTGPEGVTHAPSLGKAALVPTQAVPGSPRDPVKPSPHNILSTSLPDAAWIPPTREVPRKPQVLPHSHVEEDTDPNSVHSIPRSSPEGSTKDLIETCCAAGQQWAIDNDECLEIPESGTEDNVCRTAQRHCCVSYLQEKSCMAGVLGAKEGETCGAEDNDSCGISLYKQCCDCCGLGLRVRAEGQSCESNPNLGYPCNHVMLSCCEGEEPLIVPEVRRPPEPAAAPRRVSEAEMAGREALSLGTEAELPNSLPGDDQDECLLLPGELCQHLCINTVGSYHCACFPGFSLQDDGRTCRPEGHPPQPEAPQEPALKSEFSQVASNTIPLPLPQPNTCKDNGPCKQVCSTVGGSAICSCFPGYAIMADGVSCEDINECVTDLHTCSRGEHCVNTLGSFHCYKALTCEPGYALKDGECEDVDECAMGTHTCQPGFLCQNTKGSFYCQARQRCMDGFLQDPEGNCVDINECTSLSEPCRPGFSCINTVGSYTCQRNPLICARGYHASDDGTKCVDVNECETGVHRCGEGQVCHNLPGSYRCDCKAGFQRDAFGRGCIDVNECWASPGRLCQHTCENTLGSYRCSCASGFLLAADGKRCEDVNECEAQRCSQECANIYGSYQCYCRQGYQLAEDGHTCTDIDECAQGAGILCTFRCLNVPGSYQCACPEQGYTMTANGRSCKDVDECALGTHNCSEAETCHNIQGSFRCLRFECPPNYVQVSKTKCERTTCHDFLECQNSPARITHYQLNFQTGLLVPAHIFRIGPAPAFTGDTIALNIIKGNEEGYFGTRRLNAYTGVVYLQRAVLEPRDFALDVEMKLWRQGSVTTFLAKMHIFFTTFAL
Chain of nidogen-1 G2 (P14543 430-667): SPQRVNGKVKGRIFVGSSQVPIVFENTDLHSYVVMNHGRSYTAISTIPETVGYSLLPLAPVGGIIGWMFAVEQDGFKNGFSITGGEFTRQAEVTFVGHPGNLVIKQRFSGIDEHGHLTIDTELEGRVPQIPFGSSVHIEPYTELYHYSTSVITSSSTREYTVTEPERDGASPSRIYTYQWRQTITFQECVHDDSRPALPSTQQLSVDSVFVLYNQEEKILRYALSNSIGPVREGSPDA
Chain of perlecan domain IV (from UniProt P98160) (P98160 1677-3686): as the sequence (P98160 1677-3686) above

Kd (fibulin-2): < 0.5 nM
Substance: nidogen (from UniProt P14543)

Kd (perlecan domain IV [1]): 10 nM
Substance: nidogen-1 G2 (from UniProt P14543)

Kd (perlecan domain IV [2]): 10 nM
Substance: nidogen-2 (from UniProt Q14112)

Kd (fibronectin): 10 nM
Substance: perlecan domain IV (from UniProt P98160)

Kd (α4-laminin): > 1000 nM
Kd (α1-laminin): 20 nM
Kd (perlecan LG): 16 nM
Kd (α2-laminin): 43 nM
Kd (agrin (muscle)): 2 nM
Kd (α5-laminin): 150 nM
Substance: α-dystroglycan (from UniProt Q14118)
